Data: US20120316071A1 (published 2012)
Each block holds one binder with its values, some of them ahead of it.

Assays:
[1] = biological target: T1, rHuman ErbB2/Fc Chimera, CF (R&D Systems Cat#1129-ER) (human, UniProt P04626 23-652); assay: Multispot ECL (MSD) binding screen, antigen spotted on plate; hit = signal/blank >= 4
T1 construct: Bought Fc chimera; also called human epidermal growth factor 2 receptor; Fc part of the bought chimera not given

[2] = biological target: T2, rHuman IGF-1 sR, (IGF-1 sR), CF (R&D Systems Cat#391-GR) (human, UniProt P08069 31-932); assay: ECL multispot (MSD), antigen spotted, 10 nM Fab; blank spot of this row 271
T2 construct: Bought recombinant soluble receptor; also called insulin-like growth factor-1 soluble receptor

[3] = biological target: T3, rHuman P-Cadherin/Fc Chimera, CF (R&D Systems Cat#861-PC) (human, UniProt P22223 108-654); assay: as above
T3 construct: Bought recombinant protein; Fc part of the bought chimera not given

[4] = biological target: T4, rHuman Erythropoietin R/Fc Chimera, CF (R&D Systems Cat#963-ER) (human, UniProt P19235 25-250); assay: as above
T4 construct: Bought recombinant protein; also called EPO R; EPO R/Fc; Fc part of the bought chimera not given
T4 sequence (looked up): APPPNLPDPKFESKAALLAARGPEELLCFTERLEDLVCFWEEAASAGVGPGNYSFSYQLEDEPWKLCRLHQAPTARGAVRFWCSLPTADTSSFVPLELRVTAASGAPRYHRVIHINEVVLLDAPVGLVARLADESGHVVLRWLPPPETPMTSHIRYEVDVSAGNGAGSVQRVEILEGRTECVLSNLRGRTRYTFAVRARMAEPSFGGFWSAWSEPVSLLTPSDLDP

[5] = biological target: T5, rHuman ErbB2/Fc Chimera, CF (R&D Systems Cat#1129-ER) (human, UniProt P04626 23-652); assay: as above
T5 construct: Bought recombinant protein; also called human epidermal growth factor 2 receptor; Fc part of the bought chimera not given

[6] = biological target: T6, rHuman EGF R/Fc Chimera, CF (R&D Systems Cat#344-ER) (human, UniProt P00533 25-645); assay: as above
T6 construct: Bought recombinant protein; also called epidermal growth factor receptor; Fc part of the bought chimera not given

[7] = biological target: T7, rHuman Notch-1/Fc Chimera, CF (R&D Systems Cat#3647-TK) (human, UniProt P46531 19-526); assay: as above
T7 construct: Bought recombinant protein; Fc part of the bought chimera not given

[8] = biological target: T8, rHuman CD44/Fc Chimera, CF (R&D Systems Cat#3660-CD) (human, UniProt P16070 21-220); assay: as above
T8 construct: Bought recombinant protein; Fc part of the bought chimera not given

[9] = biological target: T9, rHuman HGF R/c-MET/Fc Chimera (human, UniProt P08581 25-932); assay: ECL multispot (MSD) binding assay; antigen spotted on plate, Fab in solution;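 also: purified Fab bound for 1 h at 20 °C, detected with a TAG-labelled antibody, electrochemiluminescence compared with each well's blank, signal-to-blank ratio of at least 4 scored as hit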
T9 construct: also called HGF R/Fc

[10] = biological target: T10, rHuman Notch-1/Fc Chimera (human, UniProt P46531 19-526); assay: as above
T10 construct: Bought from R&D Systems (Cat#3647-TK)

[11] = biological target: rHuman CD44/Fc Chimera (human, UniProt P16070 21-220); assay: as above
[12] = biological target: rHuman IGF-1 sR (insulin-like growth factor-1 soluble receptor) (human, UniProt P08069 31-932); assay: as above
[13] = biological target: T11, rHuman P-Cadherin/Fc Chimera (human, UniProt P22223 108-654); assay: as above
T11 construct: Bought from R&D Systems (Cat#861-PC)

[14] = biological target: T12, rHuman Erythropoietin R/Fc Chimera (human, UniProt P19235 25-250); assay: as above
T12 construct: also called EPO R; EPO R/Fc
T12 sequence (looked up): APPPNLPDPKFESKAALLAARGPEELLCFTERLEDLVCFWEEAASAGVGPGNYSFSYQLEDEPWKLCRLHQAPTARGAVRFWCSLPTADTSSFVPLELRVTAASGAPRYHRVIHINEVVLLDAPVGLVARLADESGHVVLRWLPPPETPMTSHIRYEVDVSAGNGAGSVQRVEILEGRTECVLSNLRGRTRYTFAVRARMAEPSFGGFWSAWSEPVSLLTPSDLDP

[15] = biological target: T13, Recombinant Human DLL4 (delta-like protein 4) (human, UniProt Q9NR61 27-529); assay: as above
T13 construct: Bought from R&D Systems (Cat#1506-D4/CF); also called rHuman DLL4

[16] = biological target: rHuman ErbB2/Fc Chimera (human, UniProt P04626 23-652); assay: as above
[17] = biological target: rHuman EGF R/Fc Chimera (human, UniProt P00533 25-645); assay: as above
[18] = biological target: T14, Recombinant Human DLL4 (R&D Systems Cat#1506-D4/CF) (human, UniProt Q9NR61 27-524); assay: ECL multispot (MSD) binding assay; DLL4 signal over blank spot
T14 construct: Bought recombinant protein; also called delta-like protein 4; rHuman DLL4

[19] = biological target: T14, Recombinant Human DLL4 (R&D Systems …); assay: ECL multispot (MSD) binding assay; DLL4 spotted on the plate, purified Fab added

T9 sequence (P08581 25-932, change not shown): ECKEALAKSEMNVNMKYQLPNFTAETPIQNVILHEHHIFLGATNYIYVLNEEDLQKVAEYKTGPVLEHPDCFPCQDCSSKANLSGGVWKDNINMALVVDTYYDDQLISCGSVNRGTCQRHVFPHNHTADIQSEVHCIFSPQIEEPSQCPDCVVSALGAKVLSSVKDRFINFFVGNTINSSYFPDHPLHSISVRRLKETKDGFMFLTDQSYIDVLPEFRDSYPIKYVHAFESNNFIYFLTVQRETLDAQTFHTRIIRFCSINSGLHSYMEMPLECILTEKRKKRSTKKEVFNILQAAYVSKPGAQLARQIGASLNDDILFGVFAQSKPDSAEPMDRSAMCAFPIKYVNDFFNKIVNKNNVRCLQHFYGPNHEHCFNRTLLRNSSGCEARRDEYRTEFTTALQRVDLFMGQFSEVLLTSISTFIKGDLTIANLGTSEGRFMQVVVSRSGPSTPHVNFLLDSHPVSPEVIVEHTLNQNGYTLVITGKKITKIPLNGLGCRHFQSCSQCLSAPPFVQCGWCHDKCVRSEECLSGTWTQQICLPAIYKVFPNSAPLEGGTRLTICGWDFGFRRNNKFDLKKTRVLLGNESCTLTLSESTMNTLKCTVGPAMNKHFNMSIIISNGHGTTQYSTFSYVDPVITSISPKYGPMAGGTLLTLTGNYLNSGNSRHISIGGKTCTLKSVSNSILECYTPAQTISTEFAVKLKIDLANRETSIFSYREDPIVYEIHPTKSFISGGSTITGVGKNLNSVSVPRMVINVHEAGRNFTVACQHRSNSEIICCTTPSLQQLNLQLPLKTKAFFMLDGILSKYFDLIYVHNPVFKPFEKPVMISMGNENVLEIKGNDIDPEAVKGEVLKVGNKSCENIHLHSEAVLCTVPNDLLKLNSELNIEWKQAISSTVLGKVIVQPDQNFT

B4: Fab VH1-46_IGHD6-6*01_IGHJ1*01 S102A/S103P/S104F/H111F (APFF) & L6_IGKJ1*01 S92C (Fab, V domains shown)
VH: QVQLVQSGAEVKKPGASVKVSCKASGYTFTSYYMHWVRQAPGQGLEWMGIINPSGGSTSYAQKFQGRVTMTRDTSTSTVYMELSSLRSEDTAVYYCAREEYAPFSAEYFQFWGQGTLVTVSS
VL: EIVLTQSPATLSLSPGERATLSCRASQSVSSYLAWYQQKPGQAPRLLIYDASNRATGIPARFSGSGSGTDFTLTISSLEPEDFAVYYCQQRCNWPPWTFGQGTKVEIKR
notes: Tested as Fab made in E. coli: VH cloned into Plasmid A (CH1, His6 and Flag tags), kappa VL into Plasmid C (kappa CL); also called APFF / S92C
ECL signal [9]: 589
ECL signal [10]: 642
ECL signal [11]: 554
ECL signal [12]: 642
ECL signal [13]: 805
ECL signal [14]: 742
ECL signal [15]: 1230
ECL signal [16]: 526
ECL signal [17]: 588

B5: Fab VH1-46_IGHD6-6*01_IGHJ1*01 S102A/S103P/S104F/H111F (APFF) & L6_IGKJ1*01 (Fab, V domains shown)
VH: QVQLVQSGAEVKKPGASVKVSCKASGYTFTSYYMHWVRQAPGQGLEWMGIINPSGGSTSYAQKFQGRVTMTRDTSTSTVYMELSSLRSEDTAVYYCAREEYAPFSAEYFQFWGQGTLVTVSS
VL: not shown
notes: Tested as an E. coli-expressed Fab; also called H:APFF & L:wt; APFF parent
Signal/Blank [18]: 611 ratio
ECL signal [19]: 189000 ECL counts

B6: Fab VH1-46_IGHD6-6*01_IGHJ1*01 S102A/S103P/S104F/H111F (APFF) & L6_IGKJ1*01 (Fab, V domains shown)
VH: QVQLVQSGAEVKKPGASVKVSCKASGYTFTSYYMHWVRQAPGQGLEWMGIINPSGGSTSYAQKFQGRVTMTRDTSTSTVYMELSSLRSEDTAVYYCAREEYAPFSAEYFQFWGQGTLVTVSS
VL: not shown
notes: Tested as Fab (CH1 with His6/Flag tags from Plasmid A; kappa CL from Plasmid C); also called APFF / parent; H:APFF & L:wt
ECL signal [9]: 185
ECL signal [12]: 336
ECL signal [13]: 295
ECL signal [15]: 189000
ECL signal [16]: 289
ECL signal [17]: 326

Further lines, results first:

binding result [1]: binds
B1: Fab VH2-5_IGHD7-27*01_IGHJ2*01 & L2_IGKJ1*01 (Fab, V domains shown)
VH: QITLKESGPTLVKPTQTLTLTCTFSGFSLSTSGVGVGWIRQPPGKALEWLALIYWNDDKRYSPSLKSRLTITKDTSKNQVVLTMTNMDPVDTATYYCAHRPNWGYWYFDLWGRGTLVTVSS
VL: not shown

binding result [1]: binds
B2: Fab VH1-69_IGHD1-1*01_IGHJ6*01 & A17_IGKJ1*01 (Fab, V domains shown)
VH: QVQLVQSGAEVKKPGSSVKVSCKASGGTFSSYAISWVRQAPGQGLEWMGGIIPIFGTANYAQKFQGRVTITADKSTSTAYMELSSLRSEDTAVYYCARGYNWNDDYYYYYGMDVWGQGTTVTVSS
VL: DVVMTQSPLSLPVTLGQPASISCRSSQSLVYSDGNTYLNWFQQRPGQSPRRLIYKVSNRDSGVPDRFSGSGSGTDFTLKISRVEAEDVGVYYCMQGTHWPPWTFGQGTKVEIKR
notes: Fab; expressed in E. coli from Plasmid A (CH1, His6 and Flag tags) and Plasmid C (kappa CL)

ECL signal [2]: 250
ECL signal [3]: 391
ECL signal [4]: 296
ECL signal [5]: 334
ECL signal [6]: 312
ECL signal [7]: 327
ECL signal [8]: 159
B3: Fab VH1-46_IGHD6-6*01_IGHJ1*01 S102A/S103P/S104F G55W & L6_IGKJ1*01 (Fab, V domains shown)
VH: QVQLVQSGAEVKKPGASVKVSCKASGYTFTSYYMHWVRQAPGQGLEWMGIINPSWGSTSYAQKFQGRVTMTRDTSTSTVYMELSSLRSEDTAVYYCAREEYAPFSAEYFQHWGQGTLVTVSS
VL: not shown
notes: Tested as Fab (CH1 with His6 and Flag tags, kappa CL); also called APF G55W

Signal/Blank [18]: 281 ratio
ECL signal [19]: 91400 ECL counts
B7: Fab VH1-46_IGHD6-6*01_IGHJ1*01 S102A/S103P/S104F/H111F (APFF) & L6_IGKJ1*01 S92G (Fab, V domains shown)
VH: QVQLVQSGAEVKKPGASVKVSCKASGYTFTSYYMHWVRQAPGQGLEWMGIINPSGGSTSYAQKFQGRVTMTRDTSTSTVYMELSSLRSEDTAVYYCAREEYAPFSAEYFQFWGQGTLVTVSS
VL: EIVLTQSPATLSLSPGERATLSCRASQSVSSYLAWYQQKPGQAPRLLIYDASNRATGIPARFSGSGSGTDFTLTISSLEPEDFAVYYCQQRGNWPPWTFGQGTKVEIKR
notes: Fab with CH1 (His6 and Flag tags) and kappa CL from the expression vectors; also called APFF & S92G
